We go through 4 molecules from patent US7910550B2, “Human kunitz-type inhibitor with enhanced antifibrinolytic activity” (STC.UNM, priority 2004, dated 2011).

Positions count from the first letter of the chain named. In names and notes the source's numbering stands.

Experiment [1] relates to human umbilical vein endothelial cells (HUVECs). As to the kind of experiment: In vitro human endothelial cell angiogenesis assay (capillary tube formation on ECMATRIX). The format is cell-based. The source says:
The angiogenesis assay is commercially available from Chemicon International, Inc. (Temecula, Calif.), and involves growing human umbilical vein endothelial cells (HUVECs) on a proprietary matrix, followed by assessing angiogenesis on this matrix by counting new branch points in sprouting endothelial cells.
A semi-quantitative assay for in vitro angiogenesis was utilized. Human umbilical vein endothelial cells (HUVEC, Clonetics Corp., Walkersville, Md.) were maintained in 25 cm^2 flasks in EGM-2 media (Clonetics Corp.) supplemented with 2% fetal bovine serum, gentamicin, amphotericin-B, hEGF, hydrocortisone, VEGF, hFGF-B, R^3-IGF-1, ascorbic acid and heparin. For assay, a 48-well tissue culture plate was coated with 100 μl of ECMATRIX (Chemicon International, Inc., Temecula, Calif.) followed by incubation at 37° C. for one hour. Approximately 5×10^4 cells were then seeded onto the surface of the polymerized matrix. Varying concentrations of full-length human TFPI-2, diluted in EGM-2 media and filtered, were added to the wells and plate was placed in 37° C.-humidified CO2 incubator. Each treatment was performed in duplicate wells. Separately, VEGF was used as a positive control. The three-dimensional organization of cells was examined every hour under an inverted photomicroscope. The capillary tube branch point formation was counted in each well following eight hours of incubation. For each concentration, eight randomly chosen areas under 250× magnified field were observed. The results are expressed as number of branching points (mean±SEM) and the differences between each mean value was tested by one way analysis of variance (ANOVA). Statistically p-value <0.05 was accepted.
To examine the effect of full-length human TFPI-2 on morphogenesis (capillary-like tube formation) of endothelial cells, HUVECs were seeded on the matrigel and treated with full-length human TFPI-2 (0.2 μM-5 μM).

For experiment [2], the system named is murine model of allergic asthma. In words: Murine model of allergic asthma (OVA-immunized B6D2F1 mice). The note with it: lateral tail vein, days 11-14; vs vehicle treated mice. It is filed as in vivo. The method, then: B6D2F1 mice were immunized with ovalbumin (OVA) adsorbed to alum (days 0 and 5) and received two OVA aerosols on day 12. A subgroup of mice were treated with hexahistidine-tagged KD1, delivered via the lateral tail vein, on days 11-14. Mice were sacrificed on day 15 for the enumeration and differentiation of cells in the airway and lung tissue compartments.

The test system of experiment [3] is HT-1080 cells. In words: FACS analysis of apoptosis with annexin V/propidium iodide. It is filed as cell-based, human. The note with it: 1 μM, 48 hours. As for the experimental part: (§1) All cell lines were maintained in Dulbecco's minimal essential medium (DMEM), supplemented with heat-inactivated 10% fetal bovine serum and penicillin-streptomycin. The cells were cultured either in 6- or 12-well plates at 37° C. in a humidified atmosphere containing 6% CO2. At confluence, the cells were treated with fresh medium containing either wild-type TFPI-2, R24K KD1, or R24Q KD1. Cells were treated in duplicate with purified proteins at concentrations ranging from 0.5 μM to 10 μM for different time intervals. One set were also treated with PBS to serve as a control. The Limulus Amebocyte Lysate (LAL) assay was performed on each protein preparation to determine the presence of any endotoxin/LPS, and only trace amounts of endotoxin (<0.5 ng/L) were detected in each protein preparation.
To assess the degree of apoptosis between the various treatments, cells were grown to confluence in 6 well plates and treated with either proteins or vehicle as described earlier. For annexin V staining, approximately 1.2×10^6 cells were harvested with PBS containing 1 mM EDTA and washed twice gently with cold PBS. The cells were suspended in 100 μl of cold binding buffer (10 mM Hepes (pH 7.4), 140 mM NaCl, 2.5 mM CaCl2), and subsequently incubated at room temperature in the dark for 25 minutes with 5 μl of FITC-conjugated annexin V and 10 μl of propidium iodide (50 μg/ml stock). The cells were then washed in 500 μl of binding buffer to remove unbound reagents, centrifuged at 900×g for 5 minutes, and resuspended in 1 ml of cold binding buffer. The labeled cells were then analyzed using a FACSCALIBUR flow cytometer (Becton Dickinson, San Jose, Calif.) and the data analyzed using […] software.

The subject of experiment [4] is HT-1080 cells. As to the kind of experiment: Apoptosis detection by AO/EB staining. It is filed as cell-based, human. The note with it: 1 μM, 48 h; approximately 5% in vehicle-treated cells. The method, then:
as §1
Cells were grown to confluence in two-chamber culture slides containing 2 ml medium. For AO/EB staining, the cultures were treated with recombinant proteins as described above. […] Cells were viewed within 30 minutes of staining and counted using a Zeiss axiocam epifluorescence microscope (Carl Zeiss, Inc., Thornwood, N.Y.) equipped with a triple cube filter [DAPI/FITC/RITC]. […] Experiments were performed in triplicate, and a minimum of 100 total live and apoptotic cells were counted in each treatment.

In experiment [5] the test system is HT-1080 cells. In words: Western blot of cell extracts (Bax, Bcl-2, cleaved caspase-9, cleaved caspase-3). The format is cell-based, human. The note with it: 1 μM, 48 hours; vs vehicle-treated cells. The method, then:
Cell extracts were analyzed for the pro-apoptotic Bax, the anti-apoptotic Bcl-2, cleaved caspase-9 and cleaved caspase-3 by immunoblotting techniques. Approximately, 1×10^6 HT-1080 cells were grown to confluence in 6-well plates and treated with recombinant proteins and vehicle as described above. Both floating and adherent cells were harvested and washed twice with cold PBS. The cells were lysed by sonication in 500 μl of lysis buffer containing of 125 mM Tris-HCl (pH 6.8), 2% SDS, 10% glycerol, 50 mM sodium phosphate, 1 mM PMSF and protease inhibitor cocktail. The lysate was kept on ice for about 10 minutes, centrifuged for 15 minutes at 10,000×g at 4° C., and the supernatant recovered. The supernatants were boiled for 3 min and 50 μg of lysate protein subjected to SDS-PAGE in 4-20% polyacrylamide gradient gels. […] The nitrocellulose membranes were then probed with specific antibodies dissolved in fresh blocking buffer, and immunoreactive proteins were identified using HRP-conjugated secondary antibodies and a chemiluminescent reagent system essentially as described in Kempiah et al., Mol. Cancer, 6:20, 2007. Separate blots were treated with mouse monoclonal anti-α-tubulin antibody in order to verify equal loading of lysate proteins onto the gel.

The target of a further experiment is plasmin (Homo sapiens, UniProt P00747). The note with it: relative to TFPI-2; cited from earlier work.
For a further experiment, the system named is trypsin. The note with it: relative to TFPI-2; cited from earlier work.
For experiment [6], the target named is factor VIIa-tissue factor complex (Homo sapiens, UniProt P08709). The note with it: relative to TFPI-2; cited from earlier work.
Chain of factor VIIa-tissue factor complex (P08709 213-466 limits assumed): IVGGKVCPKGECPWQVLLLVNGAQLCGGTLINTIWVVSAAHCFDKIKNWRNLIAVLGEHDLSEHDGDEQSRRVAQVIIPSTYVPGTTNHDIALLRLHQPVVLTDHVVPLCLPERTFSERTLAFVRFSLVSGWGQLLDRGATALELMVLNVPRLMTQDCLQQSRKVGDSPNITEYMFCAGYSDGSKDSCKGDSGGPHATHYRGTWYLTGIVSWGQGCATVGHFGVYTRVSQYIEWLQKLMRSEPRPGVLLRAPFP
Chain of factor VIIa-tissue factor complex (P08709 61-212 partner limits assumed): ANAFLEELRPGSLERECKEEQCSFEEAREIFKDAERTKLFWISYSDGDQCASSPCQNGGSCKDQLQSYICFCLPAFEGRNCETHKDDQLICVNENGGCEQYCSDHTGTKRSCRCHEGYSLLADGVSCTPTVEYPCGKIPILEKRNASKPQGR
Chain of factor VIIa-tissue factor complex (P13726 33-295 partner): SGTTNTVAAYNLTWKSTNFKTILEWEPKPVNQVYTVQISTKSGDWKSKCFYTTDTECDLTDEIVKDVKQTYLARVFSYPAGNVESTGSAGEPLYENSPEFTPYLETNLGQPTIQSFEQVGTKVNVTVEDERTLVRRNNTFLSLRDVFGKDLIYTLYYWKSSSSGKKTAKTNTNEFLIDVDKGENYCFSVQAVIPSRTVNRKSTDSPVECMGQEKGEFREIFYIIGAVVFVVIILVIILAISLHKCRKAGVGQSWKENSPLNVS

Chain of plasmin (P00747 581-810 limits assumed, species assumed): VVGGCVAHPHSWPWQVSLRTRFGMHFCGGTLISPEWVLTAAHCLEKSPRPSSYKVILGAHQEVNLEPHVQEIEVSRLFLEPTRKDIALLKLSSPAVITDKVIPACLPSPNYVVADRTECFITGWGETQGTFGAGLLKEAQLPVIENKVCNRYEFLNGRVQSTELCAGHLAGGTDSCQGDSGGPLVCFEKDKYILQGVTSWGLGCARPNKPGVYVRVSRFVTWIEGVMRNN
Chain of plasmin (P00747 97-580 partner limits assumed, species assumed): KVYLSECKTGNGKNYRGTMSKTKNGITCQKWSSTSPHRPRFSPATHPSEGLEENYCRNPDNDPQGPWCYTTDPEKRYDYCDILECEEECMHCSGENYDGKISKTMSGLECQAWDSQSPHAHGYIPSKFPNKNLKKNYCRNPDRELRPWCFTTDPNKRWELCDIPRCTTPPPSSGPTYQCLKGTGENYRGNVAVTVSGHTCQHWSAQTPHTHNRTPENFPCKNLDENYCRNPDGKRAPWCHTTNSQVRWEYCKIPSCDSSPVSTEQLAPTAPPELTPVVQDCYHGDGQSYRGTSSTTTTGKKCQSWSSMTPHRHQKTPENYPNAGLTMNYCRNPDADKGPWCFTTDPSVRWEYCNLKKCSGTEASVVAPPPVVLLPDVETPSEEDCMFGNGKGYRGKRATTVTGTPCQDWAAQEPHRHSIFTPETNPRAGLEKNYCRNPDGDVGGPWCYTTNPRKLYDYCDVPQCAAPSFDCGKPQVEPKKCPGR

As for VEGF [reference compound], the “time to first visible tube” value in experiment [1] (approximately 4 hours in the control) was at most 3 h. Moreover, the “number of tube formation” value in experiment [1] (positive control, compared to control HUVECs) is on record as “significant increase in number of tube formation”.

B1: KD1: the first Kunitz-type domain of human TFPI-2 (SEQ ID NO:2), recombinant, expressed in E. coli (protein, listed as Homo sapiens)
chain: DAAQEPTGNNAEICLLPLDYGPCRALLLRYYYDRYTQSCRQFLYGGCEGNANNFYTWEACDDACWRIEKVPKV
B1: in experiment [1] (HUVECs on matrix), the “inhibition of angiogenesis (capillary-like tube formation)” value was “does not inhibit angiogenesis”. In addition, the “cells, macrophages and lymphocytes recoverable from the airways” value in experiment [2] was “significant decrease in the number of airway macrophages and lymphocytes”.

B2: R24Q KD1: KD1 point mutant, arginine 24 to glutamine; lacks reactive site arginine/lysine residue (protein)
chain: B1 chain with R24Q
modifications: left off: small tags and cut ends
As to B2, the “cells in a late apoptotic stage (annexin V and PI positive)” value in the experiment with HT-1080 cells [3] (vehicle 4%) is given as around 15%. Further, the “early apoptotic cells (annexin V-FITC positive)” value in the experiment with HT-1080 cells [3] (vehicle 16%) is listed as 55%. The “apoptotic cells (AO/EB staining)” value in the experiment on HT-1080 cells [4] is listed as 18%. Moreover, the “activated caspase 9 and activated caspase 3 (immunoblot)” value in the experiment on HT-1080 cells [5] is listed as “levels were significantly lower than that observed with TFPI-2 or R24K KD1”.

B3: R24Q TFPI-2: full-length TFPI-2 mutant, P1 arginine R24 to glutamine; inactive mutant (protein)
chain: DAAQEPTGNNAEICLLPLDYGPCQALLLRYYYDRYTQSCRQFLYGGCEGNANNFYTWEACDDACWRIEKVPKVCRLQVSVDDQCEGSTEKYFFNLSSMTCEKFFSGGCHRNRIENRFPDEATCMGFCAPKKIPSFCYSPKDEGLCSANVTRYYFNPRYRTCDAFTYTGCGGNDNNFVSREDCKRACAKALKKKKKMPKLRFASRIRKIRKKQF
Regarding B3, in the experiment with plasmin, the “inhibitory activity toward plasmin” value is 5-10% and the “lost inhibitory activity towards plasmin” value is given as above 90%. In the experiment with trypsin, the “inhibitory activity toward trypsin” value was 5-10% and the “lost inhibitory activity towards trypsin” value is above 90%. In addition, in experiment [6], the “inhibitory activity toward factor VIIa-tissue factor complex” value is listed as 5-10% and the “lost inhibitory activity towards factor VIIa-tissue factor complex” value is on record as above 90%.
